Measurements from patent US20200199244A1 (published 2020).

Biological target: human CD40 (human, UniProt P25942 21-277)
Assay: cell-based or functional assay

human CD40, sequence (P25942 21-277 limits assumed): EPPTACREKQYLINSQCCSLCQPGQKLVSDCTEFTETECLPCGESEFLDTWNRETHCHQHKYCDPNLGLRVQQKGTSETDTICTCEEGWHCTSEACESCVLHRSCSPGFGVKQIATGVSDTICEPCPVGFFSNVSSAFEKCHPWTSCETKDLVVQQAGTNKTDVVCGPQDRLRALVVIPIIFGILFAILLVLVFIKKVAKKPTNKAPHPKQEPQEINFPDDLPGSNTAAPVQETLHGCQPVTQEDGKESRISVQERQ

| hIZCD40L-driven Human B Cell Proliferation EC50 [nM] | CHO-hCD40L-driven DC Activation IL-12 EC50 [nM] | T-B cell MLR EC50 [nM] | CHO-hCD40L-driven Human B Cell Proliferation EC50 [µM] | Binder |
| --- | --- | --- | --- | --- |
| 250 | – | – | – | BMS3h-37-1 (other) VH: EVQLLESGGGLVQPGGSLRLSCAASGFTFEWYEMQWVRQAPGKGLEWVSAISGDGYRTYYADSVKGRFTISRDNSMNTLYLQMNSLRAEDTAVYYCAKELGYFDYRGRGTLVTVSS |
| 2 | 6.6 | – | – | BMS3h-37-205 (other) VH: EVQLLESGGGLVQPGGSLRLSCAASGFTFEWYEMQWVRRAPGKGLEWVSAISGDGYRTYYADSVKGRFTISRDNSKNTLYLQMNSLRAEDTAVYYCAKELEYFDYWGRGTLVTVSS |
| 8 | – | – | – | BMS3h-37-11 (other) VH: EVQLLESGGGLVQPGGSLRLSCAASGFTFEWYEMQWVRKAPGKGLEWVSAISGDGYRTYYADSVKGRFTISRDNSKNTLYLQMNSLRAEDTAVYYCAKELGYFDYRGRGTLVTVSS |
| 1 | – | – | – | BMS3h-37-212 (other) VH: EVQLLESGGGLVRPGGSLRLSCAASGFTFEWYEMQWVRRAPGKGLEWVSAISGDGYRTYYADSVKGRFTISRDNSKNTLYLQMNSLRAEDTAVYYCAKELEFFDYWGRGTLVTVSS |
| 5 | 23 | – | – | BMS3h-37-206 (other) VH: EVQLLESGGGLVQPGGSLRLSCAASGFTFEWYEMQWVRRAPGKGLEWVSAISGDGYRTYYADSVKGRFTISRDNSKNTLYLQMNSLRAEDTAVYYCAKGLEYFDYWGRGTLVTVSS |
| 0.7 | – | – | – | BMS3h-37-213 (other) VH: EVQLLESGGGLVQPGGSLRLSCAASGFTFEWYEMQWVRRAPGKGLEWVSAISGDGYRTYYADSVKGRFTISRDNSKNTLYLQMNSLRAEDTAVYYCAKELLFFDYRGRGTLVTVSS |
| 0.6 | 10 | 83 | – | BMS3h-37-202 (other) VH: EVQLLESGGGLVQPGGSLRLSCAASGFTFEWYEMQWVRRAPGKGLEWVSAISGDGWRTYYADSVKGRFTISRDNSKNTLYLQMNSLRAEDTAVYYCAKELGYFDYWGRGTLVTVSS |
| 4 | 15.5 | – | – | BMS3h-37-207 (other) VH: EVQLLESGGGLVQPGGSLRLSCAASGFTFEWYEMQWVRRAPGKGLEWVSAISGDGYRTYYADSVKGRFTISRDNSKNTLYLQMNSLRAEDTAVYYCAKELAFFDYWGRGTLVTVSS |
| 141 | – | – | – | BMS3h-131-6 (other) VL: DIQMTVSPSSLSASVGDRVTITCRANSSILWALAWYQQKPGKAPKLLIESSSGLQSGVPSRFSGSGSGTDFTLTISSLQPEDFATYYCVQNAVWPGTFGQGTKVEIKR |
| 24 | – | – | – | BMS3h-131-14 (other) VL: DIQMTQSPSSLSASVGDRVTITCRANSSILWALAWYQQKPGKAPKLLIESSSGLQSGVPSRFSGSGTGTDFTLTISGLQPEDFATYYCVQNAVWPGTFDQGTKVEIKR |
| > 7000 | – | – | > 7 | BMS3h-52 (other) VH: EVQLLESGGGLVQPGESLRLSCAASGFTFSAYDMTWVRQAPGKGLEWVSRINPTGSYTYYADSVKGRFTISRDNSKNTLYLQMNSLRAEDTAVYYCAKAKIPNLVFDYWGQGTLVTVSS |
| > 7000 | – | – | > 7 | BMS3h-61 (other) VH: EVQLLESGGGLVQPGGSLRLSCAASGFTFGTTEMAWVRQAPGKGLEWVSSIGSAGAWTYYADSVKGRFTISRDNSKNTLYLQMNSLRAEDTAVYYCAKIGGHPQGQFDYWGQGTLVTVSS |
| > 7000 | – | – | – | BMS3h-112 (other) VH: EVQLLESGGGLVQPGGSLRLSCAASGFTFGESDMKWVRQAPGKGLEWVSSISPNGWDTYYADSVKGRFTISRDNSKNTLYLQMNSLRAEDTAVYYCAKSPSSRLKFDYWGQGTLVTVSS |
| > 7000 | – | – | – | BMS3h-207 (other) VH: EVQLLESGGGLVQPGGSLRLSCAASGFTFSNQDMTWVRQAPGKGLEWVSSIDSSGQLTYYADSVKGRFTISRDNSKNTLYLQMNSLRAEDTAVYYCAKVKSLARFDYWGQGTLVTVSS |
| > 7000 | – | – | – | BMS3h-193 (other) VL: DIQMTQSPSSLSASVGDRVTITCRASQTIERRLNWYQQKPGKAPKLLIYLASRLQSGVPSRFSGSGSGTDFTLTISSLQPEDFATYYCHQYASPPLTFGQGTKVEIKR |
| 277 | – | – | – | BMS3h-193-12 (other) VL: DIQMTQSPSSLSASVGDRVTITCRASQTIERRLNWYQQKPGKAPKLLIYLASRLQSGVPSRFSGSGSGTDFTLTISSLQPEDFATYYCHQYESPPLTFGQGTKVEIKR |
| 233 | – | – | – | BMS3h-193-19 (other) VL: DIQMTQSPSSLSASVGDRVTITCRASQTIERRLNWYQQKPGKAPKLLIYLASRLQSGVPSRFSGSGSGTEFTLTISSLQPEDFATYYCHQYESPPLTFGQGTKVEIKR |
| 387 | – | – | – | BMS3h-193-16 (other) VL: DIQMTQSPSSLSASVGDRVTITCRASQAIERRLNWYQQKPGKAPKLLIYLASRLQSGVPSRFSGSGSGTDFTLTISSLQPEDFATYYCHQYASPPLTLGQGTKVEIKR |
| > 7000 | – | – | > 7 | BMS3h-8 (other) VH: EVQLLESGGGLVQPGGSLRLSCAASGFTFPSEEMSWVRQAPGKGLEWVSRISADGANTYYADSVKGRFTISRDNSKNTLYLQMNSLRAEDAAVYYCAKGRVPDLLFDYWGQGTLVTVSS |
| 142 | – | – | – | BMS3h-38-1 (other) VH: EVQLLGSGGGLVQPGGSLRLSCAASGFTFEEEEMIWVRQAPGKGLEWVSAISGSGGSTYYADSVKGRFTISRDNSKNTLYLQMNSLRAEDTAVYYCSKEPFRFDYWGQGTLVTVSS |
| 2 | 18 | 200 | 0.082 | BMS3h-38-211 (other) VH: EVQLLASGGGLVQPGGSLRLSCAASGFTFEEEEMIWVRQAPGKGLEWVSAISRQGGSTYYADSVKGRFTISRDNSKNTLYLQMNSLRAEDTAVYYCGKEPFRYDYWGQGTLVTVSS |
| > 70 | > 800 | – | > 7 | BMS3h-38-201 (other) VH: EVQLLASGGGLVQPGGSLRLSCAASGFTFEEEEMIWVRQAPGKGLEWVSAISGSGGSTYYADSVKGRFTISRDNSKNTLYLQMNSLRAEDTAVYYCGKEPFYYDYWGQGTLVTVSS |
| 4 | 29 | – | 1.1 | BMS3h-38-205 (other) VH: EVQLLASGGGLVQPGGSLRLSCAASGFTFFAAEMIWVRQAPGKGLEWVSAISGSGGSTYYADSVKGRFTISRDNSKNTLYLQMNSLRAEDTAVYYCGKEPFRYDYWGQGTLVTVSS |
| > 7000 | – | – | > 7 | BMS3h-33 (other) VH: EVQLLESGGGLVQPGGSLRLSCAASGFTFLSYPMHWVRQAPGKGLEWVSSIDSRGSVTYYADSVKGRFTISRDNSKNTLYLQMNSLRAEDTAVYYCAKGHSWTFDYWGQGTLVTVSS |
| > 7000 | – | – | > 7 | BMS3h-28 (other) VH: EVQLLESGGGLVQPGGSLRLSCAASGFTFGDVPMSWVRQAPGKGLEWVSRIDPYGSNTYYADSVKGRFTISRDNSKNTLYLQMNSLRAEDTAVYYCAKGIMPSLTFDYWGQGTLVTVSS |
| > 7000 | – | – | > 7 | BMS3h-57 (other) VH: EVQLLESGGGLVQPGGSLRLSCAASGFTFSHEDMTWVRQAPGKGLEWVSSISPNGWDTYYADSVKGRFTISRDNSKNTLYLQMNSLRAEDTAVYYCAKRTRSKFDYWGQGTLVTVSS |
| > 7000 | – | – | – | BMS3h-208 (other) VH: EVQLLESGGGLVQPGGSLRLSCAASGFTFPESDMKWVRQAPGKGLEWVSSISPNGWDTYYADSVKGRFTISRDNSKNTLYLQMNSLRAEDTAVYYCAKPAQVLFDYWGQGTLVTVSS |
| > 7000 | – | – | – | BMS3h-102 (other) VH: EVQLLESGGGLVQPGGSLRLSCAASGFTFSEAEMNWVRQAPGKGLEWVSRITTDGDSTYYADSVKGRFTISRDNSKNTLYLQMNSLRAEDTAVYYCAKGRIPTLHFDYWGQGTLVTVSS |
| > 7000 | – | – | > 7 | BMS3h-48 (other) VH: EVQLLESGGGLVQPGGSLRLSCAASGFTFADHGMTWVRQAPGKGLEWVSGIGPSGEATYYADSVKGRFTISRDNSKNTLYLQMNSLRAEDTAVYYCAKDRIPNLVFDYWGQGTLVTVSS |
| > 7000 | – | – | – | BMS3h-88 (other) VH: EVQLLESGGGLVQPGGSLRLSCAASGFTFHETEMTWVRQAPGKGLEWVSAINRLGQDTYYADSVKGRFTISRDNSKNTLYLQMNSLRAEDTAVYYCAKGRIPGLVFDYWGQGTLVTVSS |
